The text below walks through data of patent publication US20170015742A1 (published 2017).

Bounds are passed on as bounds.

B1: hBDI-9E8.11 (antibody, V domains shown)
VH: EVQLVESGGGLVQPGGSLRLSCAFSGFSLSTYGMGVGWIRQAPGKGLEWLANIWWDDDKYYNPSLKNRLTISKDTSKNQAYLQINSLRAEDTAVYYCARIESIGTTYSFDYWGQGTLVTVSS
VL: DFVLTQSPDSLAVSLGERATINCERSSGDIGDSYVSWYQQKPGQPPKNVIYADDQRPSGVPDRFSGSGSGNSASLTISSLQAEDVAVYFCQSYDINIDIVFGGGTKVEIK
notes: Humanized IgG
B2: hBDI-5H1.11 (antibody, V domains shown)
VH: EVQLVESGGGLVQPGGSLRLSCAFSGFSLSTFGMGVGWIRQAPGKGLEWLANIWWDDDKYYNPSLKNRLTISKDTSKNQAYLQINSLRAEDTAVYYCARISTGISSYYVMDAWGQGTLVTVSS
VL: DFVLTQSPDSLAVSLGERATINCERSSGDIGDTYVSWYQQKPGQPPKNVIYGNDQRPSGVPDRFSGSGSGNSATLTISSLQAEDVAVYFCQSYDSDIDIVFGGGTKVEIK
notes: Humanized IgG
B3: hBDI-5H1.9 (antibody, V domains shown)
VH: EVTLRESGPALVKPTQTLTLTCTFSGFSLSTFGMGVGWIRQPPGKALEWLANIWWDDDKYYNPSLKNRLTISKDTSKNQAVLTITNMDPVDTATYYCARISTGISSYYVMDAWGQGTTVTVSS
VL: DFVLTQSPDSLAVSLGERATINCERSSGDIGDTYVSWYQQKPGQPPKNVIYGNDQRPSGVPDRFSGSGSGNSATLTISSLQAEDVAVYFCQSYDSDIDIVFGGGTKVEIK
notes: Humanized IgG
B4: hBDI-9E8.12 (antibody, V domains shown)
VH: EVQLVESGGGLVQPGGSLRLSCAFSGFSLSTYGMGVGWIRQAPGKGLEWLANIWWDDDKYYNPSLKNRLTISKDTSKNQAYLQINSLRAEDTAVYYCARIESIGTTYSFDYWGQGTLVTVSS
VL: DFQLTQSPSSLSASVGDRVTITCERSSGDIGDSYVSWYQQKPGKAPKNVIYADDQRPSGVPSRFSGSGSGNSASLTISSLQPEDFATYYCQSYDINIDIVFGQGTKVEIK
notes: Humanized IgG
B5: hBDI-9E8.3 (antibody, V domains shown)
VH: EVTLRESGPALVKPTQTLTLTCTFSGFSLSTYGMGVGWIRQPPGKALEWLANIWWDDDKYYNPSLKNRLTISKDTSKNQVVLTMTNMDPVDTATYYCARIESIGTTYSFDYWGQGTMVTVSS
VL: EIVLTQSPGTLSLSPGERATLSCERSSGDIGDSYVSWYQQKPGQAPRLLIYADDQRPSGIPDRFSGSGSGTDFTLTISRLEPEDFAVYYCQSYDINIDIVFGGGTKVEIK
notes: Humanized IgG
B6: hBDI-5H1.3 (antibody, V domains shown)
VH: EVTLRESGPALVKPTQTLTLTCTFSGFSLSTFGMGVGWIRQPPGKALEWLANIWWDDDKYYNPSLKNRLTISKDTSKNQVVLTMTNMDPVDTATYYCARISTGISSYYVMDAWGQGTTVTVSS
VL: EIVLTQSPGTLSLSPGERATLSCERSSGDIGDTYVSWYQQKPGQAPRLLIYGNDQRPSGIPDRFSGSGSGTDFTLTISRLEPEDFAVYYCQSYDSDIDIVFGGGTKVEIK
notes: Humanized IgG
B7: hBDI-9E8.10 (antibody, V domains shown)
VH: EVTLRESGPALVKPTQTLTLTCTFSGFSLSTYGMGVGWIRQPPGKALEWLANIWWDDDKYYNPSLKNRLTISKDTSKNQAVLTITNMDPVDTATYYCARIESIGTTYSFDYWGQGTTVTVSS
VL: DFQLTQSPSSLSASVGDRVTITCERSSGDIGDSYVSWYQQKPGKAPKNVIYADDQRPSGVPSRFSGSGSGNSASLTISSLQPEDFATYYCQSYDINIDIVFGQGTKVEIK
notes: Humanized IgG
B8: hBDI-9E8.9 (antibody, V domains shown)
VH: EVTLRESGPALVKPTQTLTLTCTFSGFSLSTYGMGVGWIRQPPGKALEWLANIWWDDDKYYNPSLKNRLTISKDTSKNQAVLTITNMDPVDTATYYCARIESIGTTYSFDYWGQGTTVTVSS
VL: DFVLTQSPDSLAVSLGERATINCERSSGDIGDSYVSWYQQKPGQPPKNVIYADDQRPSGVPDRFSGSGSGNSASLTISSLQAEDVAVYFCQSYDINIDIVFGGGTKVEIK
notes: Humanized IgG
B9: hBDI-5H1.4 (antibody, V domains shown)
VH: EVTLRESGPALVKPTQTLTLTCTFSGFSLSTFGMGVGWIRQPPGKALEWLANIWWDDDKYYNPSLKNRLTISKDTSKNQVVLTMTNMDPVDTATYYCARISTGISSYYVMDAWGQGTTVTVSS
VL: EFVLTQSPGTLSLSPGERATLSCERSSGDIGDTYVSWYQQKPGQAPRLVIYGNDQRPSGIPDRFSGSGSGTDFTLTISRLEPEDFAVYYCQSYDSDIDIVFGGGTKVEIK
notes: Humanized IgG
B10: hBDI-9E8.7 (antibody, V domains shown)
VH: EVTLRESGPALVKPTQTLTLTCTFSGFSLSTYGMGVGWIRQPPGKGLEWLANIWWDDDKYYNPSLKNRLTISKDTSKNQAVLTITNMDPVDTATYYCARIESIGTTYSFDYWGQGTMVTVSS
VL: EIVLTQSPGTLSLSPGERATLSCERSSGDIGDSYVSWYQQKPGQAPRLLIYADDQRPSGIPDRFSGSGSGTDFTLTISRLEPEDFAVYYCQSYDINIDIVFGGGTKVEIK
notes: Humanized IgG
B11: hBDI-9E8.4 (antibody, V domains shown)
VH: EVTLRESGPALVKPTQTLTLTCTFSGFSLSTYGMGVGWIRQPPGKALEWLANIWWDDDKYYNPSLKNRLTISKDTSKNQVVLTMTNMDPVDTATYYCARIESIGTTYSFDYWGQGTMVTVSS
VL: EFVLTQSPGTLSLSPGERATLSCERSSGDIGDSYVSWYQQKPGQAPRLVIYADDQRPSGIPDRFSGSGSGTDFTLTISRLEPEDFAVYYCQSYDINIDIVFGGGTKVEIK
notes: Humanized IgG
B12: hBDI-5H1.12 (antibody, V domains shown)
VH: EVQLVESGGGLVQPGGSLRLSCAFSGFSLSTFGMGVGWIRQAPGKGLEWLANIWWDDDKYYNPSLKNRLTISKDTSKNQAYLQINSLRAEDTAVYYCARISTGISSYYVMDAWGQGTLVTVSS
VL: DFQLTQSPSSLSASVGDRVTITCERSSGDIGDTYVSWYQQKPGKAPKNVIYGNDQRPSGVPSRFSGSGSGNSATLTISSLQPEDFATYFCQSYDSDIDIVFGQGTKVEIK
notes: Humanized IgG
B13: hBDI-5H1.1 (antibody, V domains shown)
VH: EVTLRESGPALVKPTQTLTLTCTFSGFSLSTFGMGVGWIRQPPGKALEWLANIWWDDDKYYNPSLKNRLTISKDTSKNQVVLTMTNMDPVDTATYYCARISTGISSYYVMDAWGQGTTVTVSS
VL: NFMLTQPHSVSESPGKTVTISCERSSGDIGDTYVSWYQQRPGSSPTTVIYGNDQRPSGVPDRFSGSIDSSSNSASLTISGLKTEDEADYYCQSYDSDIDIVFGGGTKLTVL
notes: Humanized IgG
B14: hBDI-5H1.10 (antibody, V domains shown)
VH: EVTLRESGPALVKPTQTLTLTCTFSGFSLSTFGMGVGWIRQPPGKALEWLANIWWDDDKYYNPSLKNRLTISKDTSKNQAVLTITNMDPVDTATYYCARISTGISSYYVMDAWGQGTTVTVSS
VL: DFQLTQSPSSLSASVGDRVTITCERSSGDIGDTYVSWYQQKPGKAPKNVIYGNDQRPSGVPSRFSGSGSGNSATLTISSLQPEDFATYFCQSYDSDIDIVFGQGTKVEIK
notes: Humanized IgG
B15: hBDI-5H1.5 (antibody, V domains shown)
VH: EVTLKESGPALVKPTQTLTLTCTFSGFSLSTFGMGVGWIRQPPGKALEWLANIWWDDDKYYNPSLKNRLTISKDTSKNQAVLTITNMDPVDTATYYCARISTGISSYYVMDAWGQGTTVTVSS
VL: NFMLTQPHSVSESPGKTVTISCERSSGDIGDTYVSWYQQRPGSSPTTVIYGNDQRPSGVPDRFSGSIDSSSNSASLTISGLKTEDEADYYCQSYDSDIDIVFGGGTKLTVL
notes: Humanized IgG
B16: hBDI-5H1.2 (antibody, V domains shown)
VH: EVTLRESGPALVKPTQTLTLTCTFSGFSLSTFGMGVGWIRQPPGKALEWLANIWWDDDKYYNPSLKNRLTISKDTSKNQVVLTMTNMDPVDTATYYCARISTGISSYYVMDAWGQGTTVTVSS
VL: NFMLTQPHSVSESPGKTVTISCERSSGDIGDTYVSWYQQRPGSPPTNVIYGNDQRPSGVPDRFSGSIDSSSNSASLTISGLKTEDEADYFCQSYDSDIDIVFGGGTKLTVL
notes: Humanized IgG
B17: hBDI-5H1.6 (antibody, V domains shown)
VH: EVTLKESGPALVKPTQTLTLTCTFSGFSLSTFGMGVGWIRQPPGKALEWLANIWWDDDKYYNPSLKNRLTISKDTSKNQAVLTITNMDPVDTATYYCARISTGISSYYVMDAWGQGTTVTVSS
VL: NFMLTQPHSVSESPGKTVTISCERSSGDIGDTYVSWYQQRPGSPPTNVIYGNDQRPSGVPDRFSGSIDSSSNSASLTISGLKTEDEADYFCQSYDSDIDIVFGGGTKLTVL
notes: Humanized IgG

This experiment deals with T1, Human PDGF-BB (human, UniProt P01127 82-190).
T1 construct: Recombinant human PDGF-BB, a homodimer of two B chains; also called hPDGF-BB; huPDGF-BB
T1 sequence (P01127 82-190 limits assumed): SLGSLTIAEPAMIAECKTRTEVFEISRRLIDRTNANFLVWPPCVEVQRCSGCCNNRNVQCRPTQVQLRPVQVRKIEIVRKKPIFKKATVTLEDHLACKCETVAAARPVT
The experiment is described as follows: SPR (Biacore), antibody captured via anti-human Fc, antigen in solution. The procedure: For example, approximately 9000 RU of goat anti-human Fc specific polyclonal antibody (Thermo Fisher Scientific Inc., Rockford, Ill.) diluted in 10 mM sodium acetate (pH 4.5) is directly immobilized across a CM5 research grade biosensor chip using a standard amine coupling kit according to manufacturer's instructions and procedures at 25 μg/ml. Unreacted moieties on the biosensor surface were blocked with ethanolamine. For kinetic analysis, rate equations derived from the 1:1 Langmuir binding model were fitted simultaneously to multiple antigen injections (using global fit analysis) with the use of Scrubber 2 (BioLogic Software), Biacore Biaevaluation 4.0.1 software or Biacore T100 Evaluation software. Purified antibodies or DVD-Ig molecules were diluted in running buffer for capture across goat anti-human Fc reaction surfaces. Antibodies or DVD-Ig molecules to be captured as a ligand (1 μg/ml) were injected over reaction matrices at a flow rate of 10 μl/minute. During the assay, all measurements were referenced against the capture surface alone (i.e., with no captured antibody or DVD-Ig molecule). […] The equilibrium dissociation constant KD (M) of the reaction between antibodies and the target antigen was then calculated from the kinetic rate constants by the following formula: KD=Koff/Kₒₙ. Binding was recorded as a function of time and kinetic rate constants were calculated.
A general note: Surface plasmon resonance follows binding to a sensor surface in real time, without labels.
A word on the Kd: it is a measure of binding affinity in units of concentration. A lower Kd goes with tighter binding. The term kon denotes the rate constant with which the complex forms. As to B1, the Kd is ≤ 0.074 nM and the kon was ≥ 1e+07 M⁻¹ s⁻¹.

Regarding B2, the Kd is ≤ 0.37 nM and the kon was ≥ 1e+07 M⁻¹ s⁻¹.

Regarding B3, the Kd is ≤ 0.31 nM and the kon was ≥ 1e+07 M⁻¹ s⁻¹.

For B4, the Kd was ≤ 0.21 nM and the kon was ≥ 1e+07 M⁻¹ s⁻¹.

Consider B5, for which the Kd is ≤ 0.065 nM and the kon is ≥ 1e+07 M⁻¹ s⁻¹.

Consider B6, for which the Kd was ≤ 0.45 nM and the kon is ≥ 1e+07 M⁻¹ s⁻¹.

For the molecule B7, the Kd was ≤ 0.18 nM and the kon was ≥ 1e+07 M⁻¹ s⁻¹.

As to B8, the dissociation constant Kd is ≤ 0.15 nM and the kon was ≥ 1e+07 M⁻¹ s⁻¹.

With B9, the Kd was ≤ 1.4 nM and the kon is ≥ 1e+07 M⁻¹ s⁻¹.

Take B10: the Kd is ≤ 0.045 nM and the kon was ≥ 1e+07 M⁻¹ s⁻¹.

On to B11, for which the Kd is ≤ 0.021 nM and the kon was > 1e+07 M⁻¹ s⁻¹.

In the case of B12, the equilibrium dissociation constant (Kd) was ≤ 0.23 nM and the kon is ≥ 1e+07 M⁻¹ s⁻¹.

In the case of B13, the dissociation constant (Kd) is ≤ 0.41 nM and the kon was ≥ 1e+07 M⁻¹ s⁻¹.

On to B14, for which the Kd is ≤ 0.23 nM and the kon was ≥ 1e+07 M⁻¹ s⁻¹.

As for B15, the Kd is ≤ 0.17 nM and the on-rate constant (kon) is ≥ 1e+07 M⁻¹ s⁻¹.

Regarding B16, the Kd was ≤ 0.19 nM and the kon is ≥ 1e+07 M⁻¹ s⁻¹.

Turning to B17, the Kd is ≤ 0.082 nM and the on-rate (kon) is ≥ 1e+07 M⁻¹ s⁻¹.
